This test addresses WT ACE2(740)-Fc (human, UniProt Q9BYF1 18-740). Kind of test: BLI. In general terms: Biolayer interferometry detects binding as a change in optical thickness at a sensor tip.

B1: HCoV-NL63 spike RBD (domain or fragment)
chain: QHTDINFTATASFGGSCYVCKPHQVNISLNGNTSVCVRTSHFSIRYIYNRVKSGSPGDSSWHIYLKSGTCPFSFSKLNNFQKFKTICFSTVEVPGSCNFPLEATWHYTSYTIVGALYVTWSEGNSITGVPYPVSGI
As to B1, binding was put at a Kd of 22 nM.

The record behind these values is publication doi:10.1101/2020.07.31.231746 (2020).
